We go through 94 variants from the supplement of paper PMC10567573.

B1: NR2F2 (parent)
chain: NIPFFPDLQITDQVALLRLTWSEL
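Note: lentivirally expressed fusions sorted by FACS into six bins by GFP to DsRed ratio, PSI derived from sequencing read proportions per bin multiplied by bin number.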

The variants in this series derive from B1. The experiment in a line: protein stability index of a GFP-peptide fusion (GPS, HEK-293T) (PSI 1-6); higher = more stable. Particulars: c terminus: a fixed tail appended.
Turning to NIPFFPHLQITDQVALLRLTWSEL [D7H], the protein stability index worked out at 2.53. In the case of NIPFFPNLQITDQVALLRLTWSEL [D7N] it was 2.78; in that of NIPFFPMLQITDQVALLRLTWSEL [D7M], 3.45; in that of NIPFFPILQITDQVALLRLTWSEL [D7I], 2.86. Next, NIPFFPGLQITDQVALLRLTWSEL [D7G]: 3.35; NIPFFPWLQITDQVALLRLTWSEL [D7W]: 4.12; NIPFFPTLQITDQVALLRLTWSEL [D7T]: 4.43. Next, NIPFFPYLQITDQVALLRLTWSEL [D7Y]: 2.79; NIPFFPVLQITDQVALLRLTWSEL [D7V]: 2.

In the case of NIPFFPDLQMTDQVALLRLTWSEL [I10M], the protein stability index came out at 2.49. Turning to NIPFFPDLQETDQVALLRLTWSEL [I10E], the protein stability index is 1.68.

NIPFFPDLQATDQVALLRLTWSEL [I10A]: the protein stability index turned out to be 1.75.

In the case of NIPFFPDLQSTDQVALLRLTWSEL [I10S], the protein stability index was determined as 2.09. Next, NIPFFPDLQYTDQVALLRLTWSEL [I10Y]: 3.02; NIPFFPDLQKTDQVALLRLTWSEL [I10K]: 2.58. In the case of NIPFFPDLQQTDQVALLRLTWSEL [I10Q] it was 2.31; in that of NIPFFPDLQHTDQVALLRLTWSEL [I10H], 2.34; in that of NIPFFPDLQTTDQVALLRLTWSEL [I10T], 1.72. Next, NIPFFPDLQWTDQVALLRLTWSEL [I10W]: 2.39; NIPFFPDLQRTDQVALLRLTWSEL [I10R]: 1.49.

NIPFFPDLQPTDQVALLRLTWSEL [I10P]: the protein stability index is 2.2. Next, NIPFFPDLQDTDQVALLRLTWSEL [I10D]: 1.68; NIPFFPDLQFTDQVALLRLTWSEL [I10F]: 2.95; NIPFFPDLQNTDQVALLRLTWSEL [I10N]: 2.05.

In the case of NIPFFPDLQVTDQVALLRLTWSEL [I10V], the protein stability index came to 2.68. Next, NIPFFPDLQLTDQVALLRLTWSEL [I10L]: 2.47; NIPFFPDLQCTDQVALLRLTWSEL [I10C]: 2.15. Next, NIPFFPDLQGTDQVALLRLTWSEL [I10G]: 1.4; NIPKFPDLQITDQVALLRLTWSEL [F4K]: 2.12; NIPAFPDLQITDQVALLRLTWSEL [F4A]: 2.34.

For NIPSFPDLQITDQVALLRLTWSEL [F4S], the protein stability index was 2.04. NIPPFPDLQITDQVALLRLTWSEL [F4P]: the protein stability index stood at 2.58. Next, NIPGFPDLQITDQVALLRLTWSEL [F4G]: 2.2; NIPYFPDLQITDQVALLRLTWSEL [F4Y]: 2.56. As for NIPHFPDLQITDQVALLRLTWSEL [F4H], the protein stability index was determined as 2.35.

Turning to NIPIFPDLQITDQVALLRLTWSEL [F4I], the protein stability index came out at 2.63. Next, NIPVFPDLQITDQVALLRLTWSEL [F4V]: 2.42; NIPWFPDLQITDQVALLRLTWSEL [F4W]: 1.44.

Turning to NIPEFPDLQITDQVALLRLTWSEL [F4E], the protein stability index was determined as 2.22.

Turning to NIPNFPDLQITDQVALLRLTWSEL [F4N], the protein stability index stood at 2.79. Next, NIPLFPDLQITDQVALLRLTWSEL [F4L]: 3.09; NIPCFPDLQITDQVALLRLTWSEL [F4C]: 2.63. For the variant NIPMFPDLQITDQVALLRLTWSEL [F4M], the protein stability index was determined as 2.26.

Regarding NIPQFPDLQITDQVALLRLTWSEL [F4Q], the protein stability index came out at 2.62. Next, NIPRFPDLQITDQVALLRLTWSEL [F4R]: 1.37.

For the variant NIPDFPDLQITDQVALLRLTWSEL [F4D], the protein stability index is 2.44. In the case of NIPTFPDLQITDQVALLRLTWSEL [F4T] it was 2.03. In the case of NIPFFPDMQITDQVALLRLTWSEL [L8M] it was 2.51; in that of NIPFFPDPQITDQVALLRLTWSEL [L8P], 2.25; in that of NIPFFPDIQITDQVALLRLTWSEL [L8I], 2.92. As for NIPFFPDWQITDQVALLRLTWSEL [L8W], the protein stability index was determined as 2.64. NIPFFPDSQITDQVALLRLTWSEL [L8S]: the protein stability index came out at 1.82. In the case of NIPFFPDGQITDQVALLRLTWSEL [L8G] it was 1.47. Turning to NIPFFPDYQITDQVALLRLTWSEL [L8Y], the protein stability index was 2.05. In the case of NIPFFPDKQITDQVALLRLTWSEL [L8K] it was 2.7; in that of NIPFFPDTQITDQVALLRLTWSEL [L8T], 2.73. In the case of NIPFFPDVQITDQVALLRLTWSEL [L8V] it was 2.09; in that of NIPFFPDHQITDQVALLRLTWSEL [L8H], 2.

As to NIPFFPDRQITDQVALLRLTWSEL [L8R], the protein stability index turned out to be 1.99. As to NIPFFPDNQITDQVALLRLTWSEL [L8N], the protein stability index was 1.86. In the case of NIPFFPDQQITDQVALLRLTWSEL [L8Q] it was 2.22.

Regarding NIPFFPDEQITDQVALLRLTWSEL [L8E], the protein stability index came to 2.11. Next, NIPFFPDDQITDQVALLRLTWSEL [L8D]: 1.98; NIPFFPDCQITDQVALLRLTWSEL [L8C]: 1.92; NIPFFPDAQITDQVALLRLTWSEL [L8A]: 2.32. In the case of NIPFFPDFQITDQVALLRLTWSEL [L8F] it was 3.11; in that of NIPFFPDLQIQDQVALLRLTWSEL [T11Q], 2.47. In the case of NIPFFPDLQIADQVALLRLTWSEL [T11A] it was 3.71; in that of NIPFFPDLQIYDQVALLRLTWSEL [T11Y], 1.46; in that of NIPFFPDLQIMDQVALLRLTWSEL [T11M], 3.1.

On to NIPFFPDLQIPDQVALLRLTWSEL [T11P], for which the protein stability index worked out at 2.02.

As to NIPFFPDLQIHDQVALLRLTWSEL [T11H], the protein stability index was 2.89. In the case of NIPFFPDLQIDDQVALLRLTWSEL [T11D] it was 1.61; in that of NIPFFPDLQIRDQVALLRLTWSEL [T11R], 2.52; in that of NIPFFPDLQIKDQVALLRLTWSEL [T11K], 2.55.

For NIPFFPDLQIGDQVALLRLTWSEL [T11G], the protein stability index worked out at 2.28. Next, NIPFFPDLQICDQVALLRLTWSEL [T11C]: 2.25; NIPFFPDLQILDQVALLRLTWSEL [T11L]: 4.1.

NIPFFPDLQIIDQVALLRLTWSEL [T11I]: the protein stability index is 2.59.

NIPFFPDLQIFDQVALLRLTWSEL [T11F]: the protein stability index came out at 3.29. Next, NIPFFPDLQIVDQVALLRLTWSEL [T11V]: 1.99; NIPFFPDLQIWDQVALLRLTWSEL [T11W]: 3.19; NIPFFPDLQISDQVALLRLTWSEL [T11S]: 2.96. Next, NIPFFPDLQINDQVALLRLTWSEL [T11N]: 1.67; NIPFFPDLQIEDQVALLRLTWSEL [T11E]: 2.06; NIPFFPDLQITLQVALLRLTWSEL [D12L]: 2.12. Next, NIPFFPDLQITHQVALLRLTWSEL [D12H]: 3.3. With NIPFFPDLQITEQVALLRLTWSEL [D12E], the protein stability index is 3.52.

As to NIPFFPDLQITCQVALLRLTWSEL [D12C], the protein stability index was found to be 2.46. Next, NIPFFPDLQITAQVALLRLTWSEL [D12A]: 3.01; NIPFFPDLQITFQVALLRLTWSEL [D12F]: 2.42; NIPFFPDLQITIQVALLRLTWSEL [D12I]: 3.82. Next, NIPFFPDLQITGQVALLRLTWSEL [D12G]: 2.42; NIPFFPDLQITKQVALLRLTWSEL [D12K]: 3.13.
